The record followed here is the nanobody polyreactivity screen of Harvey et al. (2022).

This data set is described as follows: yeast display, Sf9 membrane polyspecificity reagent, FACS + sequencing; frameworks hold sequencing errors. A digest of the protocol: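 Galactose-induced (36–48 hours) yeast carrying a synthetic nanobody display library were exposed to 10% biotinylated, detergent-solubilized Sf9 membrane reagent at 4 °C for 1 hour. FACS followed streptavidin microbead enrichment, using low and high (top ~1%) gates for expression (anti-HA) and reagent binding (streptavidin). Colony PCR, MiSeq 2 × 250 sequencing and CDR-length filtering followed. Labels for polyreactivity reflect the gate of origin.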
Take “QVQLVESGGGLVQAGGSLRLSCAASGSIFPYNAMGCYRQAPGKEMELVAVITSSGASTYYADSVKGRFTISLDNSKNTVYLQMNSLKPEDTAVYYCAARGYNYYFGGYDYWGQGTQVTVSS”: the “polyreactivity (PSR sort gate)” value is given as “low polyreactivity”.
Then “QVQLVESGGGLVQAGGSLRLSCAASGRTFSYYTMGWYRQAPGKERELVARISNRGTNTYYADSVKGRFTISRDNAKNTVYLQMNSLKPEDTAVYYCNTEDFFNVPEMDSWGQGTQVTVSS”, with “low polyreactivity”; and “QVQLVESGGGLVQAGGSLRLSCAASGRIYPTYTMGWYRQAPGKERELVAAINRGGGSTYYADSVKGRFTISRDTAKNTVYLQLICLKPEDTAVYYCTARTYYRSYGYDYWGQGTQVTVSS”, with “low polyreactivity”.
Turning to “QVQLVESGGGLVQAGGSLRLSCAASGRTFVYNAMGWYRQAPGKERELVAGITNGGSTNYADSVKGRFTISRDNAKNTVYLQMNSLKPEDTAVYYCAADSRVYPYYFGDFGYWGQGTQVTVSS”, the “polyreactivity (PSR sort gate)” value is recorded as “low polyreactivity”.
Then “QVQHVESGGGLVQAGGSLRLSCAASGRIFTFYTMGWYRQAPGKERELVAAINSGGSTYYADSVKGRFTISRDNAKNTVYLQMNSLIQEDTAVYYCNARVYPLWFRRGYDYWGQGTQVTVSS”, with “high polyreactivity”.
Then “QVQLVESGGGLVQAGGSLRLSCAASGSTFPYNTMGWYRQAPGKEREFVAAITGDGGTTYYADSVKGRFTISRDNAKNTVYLQMNSLKPEDTAVYYCAVPYPAEGYGGDYWGQGSQVTVSS”, with “low polyreactivity”.
With “QVQLVESGGGLVQAGGSLRLSCAASGFIFPTYAMGWYRQAPGKEREFVASITRRGGSTYYADSVKGRFTISRDNAKNTVYLQMNSLKPEDTAVYYCAAGYYGFRGGGSDYWGQGTQVTVSS” the entry was “high polyreactivity”; with “QVQLVESGGGLVQAGGSLRLSCAASGIIFSYYAMGWYRQAPGKERELVAAITYSGGSTYYADSVKGRFTISRDNAKNTVYLQMNSLKPEDTAVYYCDAEDYYYYSWYEYSYYYWGQGTQVTVSS”, “high polyreactivity”.
Consider “QVQLVESGGGLVQAGGSLRLSCAASGISFSQYARGWYRQAPGKERELVAAISGSGGDTYYADSVKGRFTISRDNAKNTVYLQMNSLKPEDTAVYYCNADYESVYYEDYDYWGQGTQVTVSS”, for which the “polyreactivity (PSR sort gate)” value was “low polyreactivity”.
With “QVQLVESGGGLVQAGGSLRLSCAASGYTFYANAMGWYRQAPGKEREFVASITWSGGSTYYADSVKGRFTISRDNAKNNVYLQMHSLKPEDTAVYYCAAESWFKYDYWGQGTQVTVSS” the entry was “low polyreactivity”; with “QVQLVESGGGLVQAGGSLRLSCAPSGSIFRKYAMGRYRQAPGKERELVAAIRSSGGSTYYADSVKGRFTISRDKAKNSVYFQLNSLKPEDTAVYYCAARYYRPSRYDYWGQGTQVTVSS”, “high polyreactivity”.
Then “QVQLVESGGGLVQAGGSLSLSCAASGRTFKYYTMGWYRQAPGKERELVAAISASGGSTYYADSVKGRFTISRDNAKNTVYLQMNSLKPEDTAVYYCAKGANRAIHKQPTRSRLDSWGQGTQVTVSS”, with “high polyreactivity”; and “QVQLQESGGGLVQAGGSLLSCAASGTISWVDEMGWYRQAPGNERELVAGIAGGGNTNYADSVKGRFTISRDNAKNTVYLQMNSLDTAVYYCAVVGFGLGTHIYWGQGTQVTVSS”, with “high polyreactivity”; and “QVQLVESGGGLVQAGGSLRLSCAASGFTIYWYTMVWYRQAPGKERELVAAISRRGGRTYYADSVKGRFTISRDNAKNTVYLQMNSLKPEDTAVYYCAADGTSPVDMNYWGQGTQVTVSS”, with “high polyreactivity”.
Then “QVQLVESGGCLVQAGGSLRLSCAASGFTFWRNVMGWYRQAPGKERELVAVISRGGSTNYADSVKGRFTISRDNAMNTVYLQMNSLKPEDTAVYYCAKYARGPSKVDYWGQGTQVTVSS”, with “high polyreactivity”; and “QVQLVESGGGLVQAGGSLRLSCAASGITFPRYAMGWYRQAPGKERELVAAISKSGGRTYYADSVKGRFTISRDNAKNTVYLQMISLKPEDTAVYYCAADPLLGYLSHYYWGQGTQVTVSS”, with “high polyreactivity”.
With “QVQHVESRGGIVQAGGSLRLSCAASGFILYFNAMGWYRQAPGKERELVAAITSDGGSTYYADSVKGRFTISRDNAKNTVYLQMNSLKPEDTAVYYCAADASTWYTEEYWGQGTQVTVSS”, the “polyreactivity (PSR sort gate)” value was “low polyreactivity”.
Then “QVQMQESSGGLVHAGGSLRKSCAASGTIYHFHIMGWYRQAPGKEREFVAAIRYGTSTYYADSVKGLFTISRDNEKNTVYVKMNSQKPEDTAVYYCAVYDYLEVYCWYWGQGTQVTVSS”, with “low polyreactivity”; and “QVQLVESGGGLVQAGGSLRLSCADSGFTFPSYAMGGYRQAPGKERELVDVISRRGGSTYYADSVKGRFTISRDNAKNTVYLQMNSLKPEDTAVYYCARPRQPGSLYGYWGQGTQVTVSS”, with “high polyreactivity”; and “QVQLVDSGGGLVQAGGSLRLSCAASGRTFYTNAMGWYRQAPRKERQLVAAITRGGSTYYADSVKGRFTISRDNAKNTVYLQMNSLKPEDTAVYYCAADGRFRSHTFYYWGQGTQVTVSS”, with “high polyreactivity”.
With “QVQLVESGGGLVQAGGSLRLSCAASGITFTPNAMGWYRQAPGKEREFVAAITYSGGSTYYADSVKGRFTISRDNAKNTVYLQMNSLKPEDTAVYYCAAVYYLLYYEAYYYWGQGTQVTVSS” the entry was “low polyreactivity”.
For the sequence “QVQLVESGGGLVQAGGSLRLSCAASGRIYYVYGMGWYRQAPGKERELVAAITRSGGSTYYADSVKGRFTISRDNAKNTVYLQMNSLKPEDTAVYYCAASVPYYTGYYYNAYEYWGQGTQVTVSS”, the “polyreactivity (PSR sort gate)” value was “high polyreactivity”.
With “QVQLVESGGGLVQAGGSLRLSCAASGFNFRTNAMGWYRQAPGKERELVAAISRSGNTYYADSVKGRFTISRDNAKNTVYLQMNSLKPEDTAVYYCAAQSVRWYSSFKYYYWRQGTQVTVSS” the entry was “high polyreactivity”; with “QVQHVESGGGLVQAGGSLRLSCAASGRTFSYYTMGWYRQAPGKERELVARISNRGTNTYYADSVKGRFTISRDNAKYTVYLQMNSLKPEDYAVYYCAKYYYTSIVGYDSWGQGTQVTVSS”, “low polyreactivity”; with “QVQLVESGGGLVQAGGSLRLSCAASGSTFRSYAMGWYRQAPGKERELVAAISRGGSTYYADSVKGRFTISRDNAKNTVYLQMNSLKPEDTAVYYCAARPPRGSWQYDYWGQGTQVTVSS”, “high polyreactivity”.
With “QVQLVESGGGLVQAGGSLRLSCAASGIIFAYAMGWYRQAPAKEREMVAAISGRDGSTYYADSVKGRFTISRDNAKNTVYLQMNSLKPDDTAVYYCAKRFSDLPVEMDYWGQGTQVTVSS” the entry was “low polyreactivity”; with “QVQLVESGGGLVQAGGSLRLSCAASGLIFRRYAMGWYRTAPGKERELVAAISSSGSTYYADSVKGRFTISRDNAKNTVYLQMNSLKPEDTAVYYCNKVTGRNADRYGYWGQGTQVTVSS”, “high polyreactivity”; with “QVQLVESGGGLVQAGGSLRLSCAASGLIFDPNTMGWYRQAPGKERELVAAISSGGDTNYADSVKGRFTISRDNAKNTVYLQMNSLKPEDTAVYYCATDIRFHDPSEYEGVDFEFWGQGTQVTVSS”, “low polyreactivity”.
On to “QVQLVESGGGLVQAGGSLRLSCAASGSTFACNGMGWYRQAPGKERELVAGIDVTGGSTYYADSVKGRFTISRDNAKNTDYLQMNSMKPEDTAVYYCNARYVYHSSFAGFDYWGQGTQVTVSS”, for which the “polyreactivity (PSR sort gate)” value is on record as “low polyreactivity”.
Then “QVQLVESGGGLVQAGGSLRLSCAASGRTFYHYAMGWYRQAPGKERELVAAITYRGGNTYYADSVKGRFTISRDNAKNTVYLQMNSLKPEDTAVYFCAKQGVRRHYGYDYWGQGTQVTVSS”, with “high polyreactivity”; and “QVQLVESGGALDQAGGSLRVSCAASGSIFPIYTMGWYRQAPGKERELVAGIRYRGGNTYYADSVKGRFTISRDNAKNTVYLQMNSLNPEDTAVYYCAARAYYRYLYKLNYWGQGTQVTVSS”, with “high polyreactivity”; and “QVQLVESGGGLVQAGGSLRLSCAASGRIFSPNAMGWYRQAPGKERELVAAITRGGSTNYADSVKGRFTISRDNAKNTVYLQMNSLKPEDTAVYYCAAQLAKTIRGRGYNSWGQGTQVTVSS”, with “low polyreactivity”.
Consider “QVQLVESGGGLVQAGGSLRLSCAASGSIFSYNAMGWYRQAPGKERELVAAISSGDYTYYADSVKGRFTISRDNAKNTVYLQMNSLKPEDTAVYYCAAPYVYSRGLSGDYYWGQGTQVTVSS”, for which the “polyreactivity (PSR sort gate)” value was “high polyreactivity”.
Turning to “QVQLVESGEGLVQAGGSLRLSCAASGITFGWYAMGWYRQAPGKERELVASISSSGSTNYADSVKGRFTISRDNAKNTVYLQMNSLKPEDTAVYYCNKDYLLSHYYIYVIEGDYWGQGTQVTVSS”, the “polyreactivity (PSR sort gate)” value is “low polyreactivity”.
For the sequence “QVQLVESGGGLVQAGGSLRLSCAASGRIFGRYAMGWYRQAPGKERELVAAISRRGGTTYYADSVKGRFTISRDNAKNTVYLQMNSLKPEDTAVYSSNADTYGYGFDYWGQGTQVTVSS”, the “polyreactivity (PSR sort gate)” value is “high polyreactivity”.
Then “QVQLVESGGGLVQEGGSLRLSCAASGRTFVSNAMGWYRQAPGKERELVAAIRYGGGRTYYADSVKGRFTISRDNAKNTVYLQMNSLKPEVTAVFYCAKRSVGGTGYYWGQGTQVTVSS”, with “high polyreactivity”.
In the case of “QVQLVESGGGLVQAGGSLRLSCAASGSIFDYNAMGWYRQAPGKERELVAAISRSGGSTYYADSVKGRFTISRDNAKNTVYLQMNSLKPEDTAVYYCAALPSRPRGYDYWGHGTQVTVSS”, the “polyreactivity (PSR sort gate)” value is recorded as “high polyreactivity”.
Then “QVQLVESGGGLVQAGGSLRLSCAASGIIFLGYVMGWYRQAPGKERELVAAISSSGGRTYYADSVKGRFTISRDNAKNTVYLQMNSLKPEDTAVYYCATRTLQPGYTYPRYYWGQGTQVTVSS”, with “high polyreactivity”; and “QVQLVESGRGLVQAGGSLRLICAASGLTFHRYAMGWYRQAPGKERELVAALTWRGVSTYYADSVKGRFTISRDNAKNTVYLQMNSLKPEDTAVYYCAADDYFYDPYEYWGQGTIVTVSS”, with “high polyreactivity”.
On to “QFQLVESGGGLVQAGGSLRLSCDASGSIFSYYAMGWYRQAPGKERELVAAISQSGGTTYYADSLKGRFTISRDNEKNTVYLQMNSLKPEDTAVYYCAARAQSSFDTQYYYWGQGTQVTVSS”, for which the “polyreactivity (PSR sort gate)” value is “low polyreactivity”.
With “QVQLVESGGGLVQAGGSLRVSCAASGSTFLVYARGWYRQAPGKERELVAAISWSGGSTYYADSVKGRFTISRDNAKKTVYLQMNSLKPEDTAVYYCNAEGIYRQPRGYVYRYDYWGQGTQVTVSS” the entry was “high polyreactivity”.
